In article doi:10.1101/2022.09.15.508177:

What was measured:
[1] = biological target: CTCF (CCCTC-binding factor), full-length, wild type, C-terminal MBP-Flag tag (human) (UniProt P49711)
[2] = biological target: CTCF(Y226A/F228A) (human) (UniProt P49711); experiment: single-molecule co-localisation on DNA curtains
[3] = biological target: CTCF truncation mutant that only includes the 11 Zn-fingers (human); experiment: single-molecule co-localisation on DNA curtains
[4] = biological target: CTCF (CCCTC-binding factor), full-length, wild type, C-terminal MBP-Flag tag (human) (UniProt P49711); experiment: single-molecule co-localisation on DNA curtains

CTCF truncation mutant that only includes the 11 Zn-fingers (human), sequence (P49711 266-577, stated change not applied): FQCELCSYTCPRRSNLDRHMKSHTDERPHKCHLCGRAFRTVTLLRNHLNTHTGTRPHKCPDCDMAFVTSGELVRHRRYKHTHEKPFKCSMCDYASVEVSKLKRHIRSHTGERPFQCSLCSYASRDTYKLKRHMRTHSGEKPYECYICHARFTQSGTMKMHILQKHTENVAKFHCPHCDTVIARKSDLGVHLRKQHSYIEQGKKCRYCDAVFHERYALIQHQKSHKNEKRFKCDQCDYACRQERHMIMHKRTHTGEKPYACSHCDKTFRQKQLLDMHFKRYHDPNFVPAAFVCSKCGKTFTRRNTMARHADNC

cohesin velocity after non-permissive (CTCF^N) collision [1] | cohesin velocity after permissive (CTCF^C) collision [1] | percent co-localised [2] | percent co-localised [3] | percent of CTCF^N foci that retained cohesin [4] | Substance
0.2 bp s^-1 | 1.42 bp s^-1 | < 50% | < 50% |  | cohesin-NIPBL^C (SMC1, SMC3, RAD21, STAG1 with NIPBL^C), wild type (from UniProt Q14683;Q9UQE7;O60216;Q8WVM7;Q6KC79) (complex)
 |  |  |  | 47% | cohesin-NIPBL^C with STAG1(W337A/F347A) (from UniProt Q14683;Q9UQE7;O60216;Q8WVM7;Q6KC79) (complex)
